The target in assay [1] is T1, recombinant human ANGPTL3 (rhANGPTL3) (SEQ ID NO:1) (human) (UniProt Q9Y5C1).
T1 sequence: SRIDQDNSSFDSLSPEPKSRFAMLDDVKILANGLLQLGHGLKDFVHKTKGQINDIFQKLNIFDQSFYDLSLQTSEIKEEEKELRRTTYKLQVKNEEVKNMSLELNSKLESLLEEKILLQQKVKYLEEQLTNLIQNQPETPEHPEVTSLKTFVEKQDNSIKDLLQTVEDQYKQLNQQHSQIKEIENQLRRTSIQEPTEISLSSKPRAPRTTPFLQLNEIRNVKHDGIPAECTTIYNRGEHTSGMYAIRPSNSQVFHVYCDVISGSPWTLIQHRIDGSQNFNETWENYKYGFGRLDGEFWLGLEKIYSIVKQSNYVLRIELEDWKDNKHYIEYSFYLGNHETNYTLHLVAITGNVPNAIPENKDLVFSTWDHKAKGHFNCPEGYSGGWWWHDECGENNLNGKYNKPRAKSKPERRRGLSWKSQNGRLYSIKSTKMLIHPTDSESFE
In words: cell-based or functional assay.

The target in assay [2] is T1, recombinant human ANGPTL3 (rhANGPTL3) (SEQ ID NO:1) (human). Nature of the assay: SE-UPLC of antibody mixed with rhANGPTL3 (1:3 molar ratio), run buffer pH 6.0.
The target is the same in assay [3]. In words: SE-UPLC of antibody mixed with rhANGPTL3 (1:3 molar ratio); change of mean retention time from pH 7.4 to 6.0.
Assay [4] has the same target. Nature of the assay: SE-UPLC of antibody mixed with rhANGPTL3 (1:3 molar ratio), run buffer pH 7.4.

Sequence of evinacumab sequence identical analogue (SIA) (antibody) (VH): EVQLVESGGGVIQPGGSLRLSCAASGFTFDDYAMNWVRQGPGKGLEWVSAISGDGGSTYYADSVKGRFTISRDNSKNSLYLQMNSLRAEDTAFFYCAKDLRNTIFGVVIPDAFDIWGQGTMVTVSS
Sequence of evinacumab sequence identical analogue (SIA) (antibody) (VL): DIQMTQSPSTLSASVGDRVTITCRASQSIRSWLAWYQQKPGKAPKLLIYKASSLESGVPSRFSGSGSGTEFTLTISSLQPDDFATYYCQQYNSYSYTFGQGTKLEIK

For “evinacumab sequence identical analogue (SIA) (antibody)”, the Average relative IC50 (inhibition of rhANGPTL3-mediated LPL inhibition) (relative to evinacumab SIA) in assay [1] stood at 1. In assay [2], the MRT (mean retention time of immune complex), pH6.0 was found to be 3.82 min and the RT (retention time of immune complex), pH6.0 stood at 3.83 min. Moreover, the MRT shift, pH7.4 -> pH6.0 in assay [3] turned out to be 0.1 min. In assay [4], the MRT (mean retention time of immune complex), pH7.4 came out at 3.72 min and the RT (retention time of immune complex), pH7.4 amounted to 3.72 min.

Source of the values: patent US20260035450A1.
